Experimental findings from patent publication US20250019430A1 (published 2025) are described below.

The chains are these.
T1: RETN-flag-His (human, UniProt Q9HD89 19-108)
T1 chain: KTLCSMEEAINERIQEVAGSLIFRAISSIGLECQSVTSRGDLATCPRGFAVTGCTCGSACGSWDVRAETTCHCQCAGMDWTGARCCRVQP

B1: 5A2 (antibody, V domains shown)
VH: QVQLVQSGAEGRKPGSSVKVSCKVSGDTFSSYAISWVRQAPGQGLEWMGGIIPIFGAADYAQKFKGRVTISADESTSTAYMELSSLRSEDTAVYYCAKGPDYYGSFDPWGQGTLITVSS
VL: DIQMTQSPSFLSASVGDRVTITCRASQYIGTYLAWYQQQPGKAPKLLIYGASILQNGVPSRFSGSASGTEFTLTISSLQPEDFATYYCQQADSFPLTFGGGTKVDIKR
B2: RETN-5A2 (antibody, V domains shown)
VH: QVQLVQSGAEGRKPGSSVKVSCKVSGDTFSSYAISWVRQAPGQGLEWMGGIIPIFGAADYAQKFKGRVTISADESTSTAYMELSSLRSEDTAVYYCAKGPDYYGSFDPWGQGTLITVSS
VL: DIQMTQSPSFLSASVGDRVTITCRASQYIGTYLAWYQQQPGKAPKLLIYGASILQNGVPSRFSGSASGTEFTLTISSLQPEDFATYYCQQADSFPLTFGGGTKVDIKR
B3: 5A2-LS-2E10 (antibody, V domains shown)
VH: QVQLVQSGAEGRKPGSSVKVSCKVSGDTFSSYAISWVRQAPGQGLEWMGGIIPIFGAADYAQKFKGRVTISADESTSTAYMELSSLRSEDTAVYYCAKGPDYYGSFDPWGQGTLITVSS
VL: DIQMTQSPSSLSASVGDRVTITCRTSQTITNYLNWYQQKPGRAPKLLIFDASNLETGVPSRFSGSGSGTDFTLTISSLQPEDFATYFCQQSYNPGYTFGQGTKLEIKR
B4: 5A2-LS-2B02 (antibody, V domains shown)
VH: QVQLVQSGAEGRKPGSSVKVSCKVSGDTFSSYAISWVRQAPGQGLEWMGGIIPIFGAADYAQKFKGRVTISADESTSTAYMELSSLRSEDTAVYYCAKGPDYYGSFDPWGQGTLITVSS
VL: DIQMTQSPGTLSLSAGERATLSCRASQSVRGSYLAWYQQKPGQAPRLLIYGTSSRAPGIPDRFSGSGSGTDFTLTISSLEPEDFAVYYCQQRGDWLYTFGQGTKVEIKR
B5: 5A2-LS-2H10 (antibody, V domains shown)
VH: QVQLVQSGAEGRKPGSSVKVSCKVSGDTFSSYAISWVRQAPGQGLEWMGGIIPIFGAADYAQKFKGRVTISADESTSTAYMELSSLRSEDTAVYYCAKGPDYYGSFDPWGQGTLITVSS
VL: NFMLTQPASVSGSPGQSITISCTGSSSDVGGYNYVTWYQQHPGKAPQLIIYDVTKRPSGVSNRFSGSKSGNSASLTISGLQAEDEADYYCSSYSSSTFYVFGTGTKVTVLR
B6: 5A2-LS-2G03 (antibody, V domains shown)
VH: QVQLVQSGAEGRKPGSSVKVSCKVSGDTFSSYAISWVRQAPGQGLEWMGGIIPIFGAADYAQKFKGRVTISADESTSTAYMELSSLRSEDTAVYYCAKGPDYYGSFDPWGQGTLITVSS
VL: DIQMTQSPSSLSASVGDRVTITCQASQHVSSYLNWYQQKPGKAPKLLIYAASNLQSGVPSRFSGSGSGTDFTLTISSLQPDDFATYYCQQYDSYSSVYTFGPGTKLDIKR
B7: 5A2-LS-1F11 (antibody, V domains shown)
VH: QVQLVQSGAEGRKPGSSVKVSCKVSGDTFSSYAISWVRQAPGQGLEWMGGIIPIFGAADYAQKFKGRVTISADESTSTAYMELSSLRSEDTAVYYCAKGPDYYGSFDPWGQGTLITVSS
VL: not shown
B8: 5A2-LS-2D07 (antibody, V domains shown)
VH: QVQLVQSGAEGRKPGSSVKVSCKVSGDTFSSYAISWVRQAPGQGLEWMGGIIPIFGAADYAQKFKGRVTISADESTSTAYMELSSLRSEDTAVYYCAKGPDYYGSFDPWGQGTLITVSS
VL: QSALTQPASVSGSPGQSVTISCTGTSSDIGRYNRVSWYQHHPGKAPKLIIYDVSNRPSGVSNRFSGSKSGNTASLTISGLQAGDESDYYCSAYTRSSTWVFGGGTKLTVLR
B9: 5A2-LS-2F11 (antibody, V domains shown)
VH: QVQLVQSGAEGRKPGSSVKVSCKVSGDTFSSYAISWVRQAPGQGLEWMGGIIPIFGAADYAQKFKGRVTISADESTSTAYMELSSLRSEDTAVYYCAKGPDYYGSFDPWGQGTLITVSS
VL: DIQMTQSPSSLSASVGDRVTITCRASQSIGTYLNWYQQKPGKAPKLLIYDASSLEDGVPSRFSGSGSGTDFTLTISSLQPEDSATYYCQQSYTMPLYTFGQGTKLEIKR

The target of one experiment is RETN-C-His (#S0995). Briefly: Octet BLI. A general note: In BLI a coated tip is dipped into the sample, and binding shifts an interference pattern.
The molecule B1 showed a Kd of 2.14 nM.

The target in a further experiment is T1, RETN-flag-His. Briefly: Octet BLI.
Molecule B2 came in with a Kd of 2.1 nM.

The next experiment concerns the target RETN-His (#S0995). Briefly: Octet BLI.
With B3, the Kd worked out at 0.419 nM. The same measure, in the same setting: then B4, with 0.452 nM; and B1, with 1.17 nM. Still for that read-out and setting: then B5, with 0.538 nM; and B6, with 0.311 nM. The same measure, in the same setting: the result for B7 reads 0.958 nM. B8: the dissociation constant (Kd) came out at 0.49 nM. As for B9, the Kd is 0.443 nM.

The Kd is a measure of binding affinity in units of concentration. Read a low Kd as tighter binding.
